Reference: patent US20230346885A1 (published 2023)
Values belong to the binder of their own block, whether it stands above or below them.

Tests used:
Assay in all cases: binding, other
[1] = target: T1, XAGE1 peptide on HLA (human)
T1 peptide: KMPEAGEEQPQV

[2] = target: T2, PIWIL1 peptide on HLA (human)
T2 peptide: SLIQNLFKV

[3] = target: T3, PIWIL1 peptide on HLA (human)
T3 peptide: SIAGFVASI

[4] = target: T4, SMC1B peptide on HLA (human)
T4 peptide: ALDNTNIGKV

[5] = target: T5, RLN1 peptide on HLA (human)
T5 peptide: ALSERQPSL

[6] = target: T6, SLC45A2 peptide on HLA (human)
T6 peptide: YVTPVLLSV

[7] = target: T7, PIWIL1 peptide on HLA (human)
T7 peptide: SLSNRLYYL

B1: TCR of SEQ ID NOs 611 and 612 (TCR, V domains shown)
Valpha: KQEVTQIPAALSVPEGENLVLNCSFTDSAIYNLQWFRQDPGKGLTSLLLIQSSQREQTSGRLNASLDKSSGRSTLYIAASQPGDSATYLCAVRPRGDSSYKLIFGSGTRLLVRP
Vbeta: DGGITQSPKYLFRKEGQNVTLSCEQNLNHDAMYWYRQDPGQGLRLIYYSQIVNDFQKGDIAEGYSVSREKKESFPLTVTSAQKNPTAFYLCASSASGSIYNEQFFGPGTRLTVL
- binding result [1]: recognises

B2: TCR of SEQ ID NOs 503 and 504 (TCR, V domains shown)
Valpha: QKEVEQNSGPLSVPEGAIASLNCTYSDRGSQSFFWYRQYSGKSPELIMFIYSNGDKEDGRFTAQLNKASQYVSLLIRDSQPSDSATYLCAVMGNTDKLIFGTGTRLQVFP
Vbeta: NAGVTQTPKFQVLKTGQSMTLQCAQDMNHEYMSWYRQDPGMGLRLIHYSVGAGITDQGEVPNGYNVSRSTTEDFPLRLLSAAPSQTSVYFCASSYGVGSPLHFGNGTRLTVT
- binding result [2]: recognises

B3: TCR of SEQ ID NOs 507 and 508 (TCR, V domains shown)
Valpha: QKEVEQNSGPLSVPEGAIASLNCTYSDRGSQSFFWYRQYSGKSPELIMFIYSNGDKEDGRFTAQLNKASQYVSLLIRDSQPSDSATYLCAVKTSYDKVIFGPGTSLSVIP
Vbeta: NAGVTQTPKFQVLKTGQSMTLQCAQDMNHEYMSWYRQDPGMGLRLIHYSVGAGITDQGEVPNGYNVSRSTTEDFPLRLLSAAPSQTSVYFCASSYGAGAFYTFGSGTRLTVV
- binding result [2]: recognises

B4: TCR of SEQ ID NOs 511 and 512 (TCR, V domains shown)
Valpha: KQEVTQIPVALSVPEGENLVLNCSFTDSAIYNLQWFRQDPGKGLTSLLLIQSSQREQTSGRLNASLDKSSGRSTLYIAASQPGDSATYLCAVSPYNNNDMRFGAGTRLTVKP
Vbeta: NAGVTQTPKFQVLKTGQSMTLLCAQDMNHEYMYWYRQDPGMGLRLIHYSVGEGTTDKGEVPNGYNVSRSTTEDFPLRLLSAAPSQTSVYFCASSFTGDSPLHFGNGTRLTVT
- binding result [3]: recognises

B5: TCR of SEQ ID NOs 585 and 586 (TCR, V domains shown)
Valpha: KQEVTQIPAALSVPEGENLVLNCSFTDSAIYNLQWFRQDPGKGLTSLLLIQSSQREQTSGRLNASLDKSSGRSTLYIAASQPGDSATYLCAVRGAGGTSYGKLTFGQGTILTVHP
Vbeta: NAGVTQTPKFQVLKTGQSMTLQCAQDMNHNSMYWYRQDPGMGLRLIYYSASEGTTDKGEVPNGYNVSRLNKREFSLRLESAAPSQTSVYFCASSDESYGYYGYTFGSGTRLTVV
- binding result [4]: recognises

The remaining lines, values ahead:

- binding result [5]: recognises
B6: TCR of SEQ ID NOs 523 and 524 (TCR, V domains shown)
Valpha: QKEVEQNSGPLSVPEGAIASLNCTYSDRGSQSFFWYRQYSGKSPELIMSIYSNGDKEDGRFTAQLNKASQYVSLLIRDSQPSDSATYLCAVNAGGTSYGKLTFGQGTILTVHP
Vbeta: NAGVTQTPKFRVLKTGQSMTLQCAQDMNHNSMYWYRQDPGMGLRLIYYSASEGTTDKGEVPNGYNVSRLNKREFSLRLESAAPSQTSVYFCASSEIDVWYNSPLHFGNGTRLTVT

- binding result [5]: recognises
B7: TCR of SEQ ID NOs 525 and 526 (TCR, V domains shown)
Valpha: QKEVEQNSGPLSVPEGAIASLNCTYSDRGSQSFFWYRQYSGKSPELIMFIYSNGDKEDGRFTAQLNKASQYVSLLIRDSQPSDSATYLCAVGGYQKVTFGTGTKLQVIP
Vbeta: NAGVTQTPKFGILKIGQSMTLQCAQDMNHNYMYWYRQDPGMGLKLIYYSVGAGITDKGEVPNGYNVSRSTTEDFPLRLELAAPSQTSVYFCASRVDSYNEQFFGPGTRLTVL

- binding result [3]: recognises
B8: TCR of SEQ ID NOs 513 and 514 (TCR, V domains shown)
Valpha: KQEVTQIPAALSVPEGENLVLNCSFTDSAIYNLQWFRQDPGKGLTSLLLIQSSQREQTSGRLNASLDKSSGRSTLYIAASQPGDSATYLCAVGGYNKLIFGAGTRLAVHP
Vbeta: NAGVTQTPKFRVLKTGQSMTLLCAQDMNHEYMYWYRQDPGMGLRLIHYSVGAGITDQGEVPNGYNVSRSTTEDFPLRLLSAAPSQTSVYFCASRATGLTEAFFGQGTRLTVV

- binding result [4]: recognises
B9: TCR of SEQ ID NOs 581 and 582 (TCR, V domains shown)
Valpha: KQEVTQIPAALSVPEGENLVLNCSFTDSAIYNLQWFRQDPGKGLTSLLLIQSSQREQTSGRLNASLDKSSGRSTLYIAASQPGDSATYLCAVFNDYKLSFGAGTTVTVRA
Vbeta: NAGVTQTPKFQVLKTGQSMTLQCAQDMNHEYMSWYRQDPGMGLRLIHYSVGAGITDQGEVPNGYNVSRLNKREFSLRLESAAPSQTSVYFCASSEWFDTEAFFGQGTRLTVV

- binding result [6]: recognises
B10: TCR of SEQ ID NOs 575 and 576 (TCR, V domains shown)
Valpha: KQEVTQIPAALSVPEGENLVLNCSFTDSAIYNLQWFRQDPGKGLTSLLLIQSSQREQTSGRLNASLDKSSGRSTLYIAASQPGDSATYLCAALSYNTDKLIFGTGTRLQVFP
Vbeta: NAGVTQTPKFQVLKTGQSMTLQCAQDMNHNSMYWYRQDPGMGLRLIYYSASEGTTDKGEVPNGYNVSRLNKREFSLRLESAAPSQTSVYFCASSEAYLAAFFGQGTRLTVV

- binding result [7]: recognises
B11: TCR of SEQ ID NOs 499 and 500 (TCR, V domains shown)
Valpha: KQEVTQIPAALSVPEGENLVLNCSFTDSAIYNLQWFRQDPGKGLTSLLLIQSSQREQTSGRLNASLDKSSGRSTLYIAASQPGDSATYLCAVIDRAYSGAGSYQLTFGKGTKLSVIP
Vbeta: NAGVTQTPKFRILKIGQSMTLQCTQDMNHNYMYWYRQDPGMGLKLIHYSVGAGITDQGEVPNGYNVSRSTTEDFPLRLLSAAPSQTSVYFCASSLGVSYNEQFFGPGTRLTVL
